The source of these data is paper PMC13397619.

The chains are these.
B1: NLV3 TCR beta chain (CDR3β only) (parent)
chain: ASSPTGGSPSPLH
partner: NLCPMVATV

The variants in the experiment derive from B1. The experiment in a line: T-Switch: Jurkat TCRβ−/− cells expressing a CDR3 saturation-mutagenesis library, stained with two peptide-HLA-A*02:01 tetramers (original and novel peptide) plus anti-CD3, FACS-sorted into four gates, gDNA sequenced. To be noted: with HLA-A*02:01 with peptide … (NLV 2-1, the novel peptide), tetramers 1 µg/mL, 30 min on ice, SP, DP and SW gates expanded about 10 days between rounds ('two to three rounds of selection' in the Methods), gate SW: higher = more of the variant in the gate that binds the novel peptide and not the original one = switched binding. Fold enrichment of the CDR3 variant in one FACS gate of a two-tetramer stain, unresolved parent, parent is a CDR3 fragment, scale: fold enrichment, numbering: sequential-on-construct, sequence starts at 1.
As to […] (CDR3 as printed); P4M derived by comparing it with the table's wild-type CDR3 ASSPTGGSPSPLH, the enrichment was determined as 0. With […] (CDR3 as printed); P11K derived by comparing it with the table's wild-type CDR3 ASSPTGGSPSPLH the figure was 0. Turning to […] (CDR3 as printed); P4C derived by comparing it with the table's wild-type CDR3 ASSPTGGSPSPLH, the enrichment turned out to be 0. Under […] (CDR3 as printed); H13L derived by comparing it with the table's wild-type CDR3 ASSPTGGSPSPLH stands 0; under […] (CDR3 as printed); P9A derived by comparing it with the table's wild-type CDR3 ASSPTGGSPSPLH, 0; under […] (CDR3 as printed); P4Q derived by comparing it with the table's wild-type CDR3 ASSPTGGSPSPLH, 0.

For the variant […] (CDR3 as printed); G7I derived by comparing it with the table's wild-type CDR3 ASSPTGGSPSPLH, the enrichment was determined as 0.

As to […] (CDR3 as printed); P11H derived by comparing it with the table's wild-type CDR3 ASSPTGGSPSPLH, the enrichment was found to be 0.

For […] (CDR3 as printed); L12H derived by comparing it with the table's wild-type CDR3 ASSPTGGSPSPLH, the enrichment was 0.

With […] (CDR3 as printed); A1W derived by comparing it with the table's wild-type CDR3 ASSPTGGSPSPLH, the enrichment amounted to 0. Turning to […] (CDR3 as printed); G7S derived by comparing it with the table's wild-type CDR3 ASSPTGGSPSPLH, the enrichment came out at 0. With […] (CDR3 as printed); P4H derived by comparing it with the table's wild-type CDR3 ASSPTGGSPSPLH the figure was 0. With […] (CDR3 as printed); L12R derived by comparing it with the table's wild-type CDR3 ASSPTGGSPSPLH, the enrichment is 0.

As to […] (CDR3 as printed); G7H derived by comparing it with the table's wild-type CDR3 ASSPTGGSPSPLH, the enrichment is 0. Under […] (CDR3 as printed); L12N derived by comparing it with the table's wild-type CDR3 ASSPTGGSPSPLH stands 0; under […] (CDR3 as printed); P9G derived by comparing it with the table's wild-type CDR3 ASSPTGGSPSPLH, 0. Take […] (CDR3 as printed); A1K derived by comparing it with the table's wild-type CDR3 ASSPTGGSPSPLH: the enrichment turned out to be 0. With […] (CDR3 as printed); H13G derived by comparing it with the table's wild-type CDR3 ASSPTGGSPSPLH the figure was 0. For the variant […] (CDR3 as printed); H13P derived by comparing it with the table's wild-type CDR3 ASSPTGGSPSPLH, the enrichment stood at 0. For […] (CDR3 as printed); P9H derived by comparing it with the table's wild-type CDR3 ASSPTGGSPSPLH, the enrichment was 0. Take […] (CDR3 as printed); G6V derived by comparing it with the table's wild-type CDR3 ASSPTGGSPSPLH: the enrichment came out at 0. Consider […] (CDR3 as printed); L12K derived by comparing it with the table's wild-type CDR3 ASSPTGGSPSPLH, for which the enrichment came out at 0. Turning to […] (CDR3 as printed); P4D derived by comparing it with the table's wild-type CDR3 ASSPTGGSPSPLH, the enrichment was determined as 0.

With […] (CDR3 as printed); G7V derived by comparing it with the table's wild-type CDR3 ASSPTGGSPSPLH, the enrichment worked out at 0.

As to […] (CDR3 as printed); P4G derived by comparing it with the table's wild-type CDR3 ASSPTGGSPSPLH, the enrichment was found to be 0. With […] (CDR3 as printed); G6N derived by comparing it with the table's wild-type CDR3 ASSPTGGSPSPLH the figure was 0; with […] (CDR3 as printed); A1H derived by comparing it with the table's wild-type CDR3 ASSPTGGSPSPLH, 0; with […] (CDR3 as printed); H13C derived by comparing it with the table's wild-type CDR3 ASSPTGGSPSPLH, 0. As to […] (CDR3 as printed); G6Q derived by comparing it with the table's wild-type CDR3 ASSPTGGSPSPLH, the enrichment worked out at 0. As for […] (CDR3 as printed); P9D derived by comparing it with the table's wild-type CDR3 ASSPTGGSPSPLH, the enrichment worked out at 0. For the variant […] (CDR3 as printed); P11V derived by comparing it with the table's wild-type CDR3 ASSPTGGSPSPLH, the enrichment was found to be 0. Regarding […] (CDR3 as printed); H13R derived by comparing it with the table's wild-type CDR3 ASSPTGGSPSPLH, the enrichment is 0. In the case of […] (CDR3 as printed); H13T derived by comparing it with the table's wild-type CDR3 ASSPTGGSPSPLH, the enrichment came to 0. For the variant […] (CDR3 as printed); G6Y derived by comparing it with the table's wild-type CDR3 ASSPTGGSPSPLH, the enrichment worked out at 0. For […] (CDR3 as printed); A1R derived by comparing it with the table's wild-type CDR3 ASSPTGGSPSPLH, the enrichment was 0. Turning to […] (CDR3 as printed); G6I derived by comparing it with the table's wild-type CDR3 ASSPTGGSPSPLH, the enrichment was determined as 0.

In the case of […] (CDR3 as printed); P11I derived by comparing it with the table's wild-type CDR3 ASSPTGGSPSPLH, the enrichment came out at 0. Take […] (CDR3 as printed); L12M derived by comparing it with the table's wild-type CDR3 ASSPTGGSPSPLH: the enrichment is 0.

For […] (CDR3 as printed); P9F derived by comparing it with the table's wild-type CDR3 ASSPTGGSPSPLH, the enrichment was 0.

Regarding […] (CDR3 as printed); H13N derived by comparing it with the table's wild-type CDR3 ASSPTGGSPSPLH, the enrichment was found to be 0.

Take […] (CDR3 as printed); P11C derived by comparing it with the table's wild-type CDR3 ASSPTGGSPSPLH: the enrichment turned out to be 0. Consider […] (CDR3 as printed); L12I derived by comparing it with the table's wild-type CDR3 ASSPTGGSPSPLH, for which the enrichment worked out at 0. For […] (CDR3 as printed); G7A derived by comparing it with the table's wild-type CDR3 ASSPTGGSPSPLH, the enrichment is 0.
